Biological target: T1, PAR3 (Homo sapiens, UniProt O00254)
T1 construct: mouse monoclonal antibody to PAR3, clone 19b (clonel9b; 25 μg/mL) for 30 minutes; endogenous in cells; host or cells: THP1-null (wildtype) cells, PMA-differentiated
T1 sequence (O00254 22-374): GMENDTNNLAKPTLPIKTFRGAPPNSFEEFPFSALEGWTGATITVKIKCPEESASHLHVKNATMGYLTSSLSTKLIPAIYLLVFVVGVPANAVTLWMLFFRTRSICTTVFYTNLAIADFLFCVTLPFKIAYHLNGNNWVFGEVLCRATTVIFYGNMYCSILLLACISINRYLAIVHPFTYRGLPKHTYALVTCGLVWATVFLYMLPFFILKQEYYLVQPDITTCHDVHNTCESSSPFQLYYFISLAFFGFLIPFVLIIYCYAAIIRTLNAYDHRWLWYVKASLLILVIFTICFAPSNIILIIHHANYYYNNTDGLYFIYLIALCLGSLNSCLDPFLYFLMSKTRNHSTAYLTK
Test: Caspase 1 activity assay in THP1 cells after blocking PAR3 with monoclonal antibody clone 19b
Type: cell-based
Conditions: clone 19b 25 μg/mL for 30 minutes before APC 4 μg/mL, TR47 50 μM or P3R 50 μM
Procedure: THP1 or (A) NLRP3 deficient cells (THP1-defNLRP3) cells were plated at a final concentration of 1×10^6/mL in 96 well plates and incubated with PMA (0.5 μM) for 3 hours 37° C. in supplemented RPMI. Media was subsequently changed every 24 hours for 3 days. In brief, selected wells were treated with APC (4 μg/mL), TR47 (50 μM) or P3R (50 μM) for 1 hour, washed with DPBS, and incubated with LPS (1 μg/mL) for 3 hours at 37° C. in serum-free RPMI. After a DPBS wash, cells were incubated with ATP (5 mM) in the presence or absence of 10 μM YVAD (caspase 1 inhibitor) or 2.5 μM ZVAD (pan-caspase inhibitor) for 45 minutes at 37° C. […] Again, cells were washed with DPBS and incubated with ATP (5 mM) in the presence or absence of 10 μM YVAD (caspase 1 inhibitor) or 2.5 μM ZVAD (pan-caspase inhibitor) for 45 minutes prior to performing the caspase 1 activity following manufacturer's directions measuring luminescence. […] After a DPBS wash, cells were incubated with ATP (5 mM) in the presence or absence of 10 μM YVAD (caspase 1 inhibitor) or 2.5 μM ZVAD (pan-caspase inhibitor) for 45 minutes at 37° C., prior to performing the caspase 1 activity assay following manufacturer's directions measuring luminescence (relative luminescent units, RLU). […]

Sequence | effect of blocking PAR3 on anti-inflammatory activity (caspase 1)
GAPPNSFEEFPFSALEGWTGATIT [P3R, PAR3-derived 24-mer peptide] | very significantly reduced the anti-inflammatory activity
NPNDKYEPFWEDEEKNESGL [TR47, PAR1-derived 20 amino acid peptide] | less significantly reduced the activity

— patent publication US20220313780A1, “METHODS AND COMPOSITIONS FOR TREATING INFLAMMATORY CONDITIONS” (THE SCRIPPS RESEARCH INSTITUTE, priority 2019, published 2022)
